± gives the standard error. This sample holds only a part of the variants without activity.
B1: glmS ribozyme (parent)
chain: AUAAAAGCGCCAGAACUACAGAAAUGUAGUUGACGAGGAGGAGGUUUAUCGAAUUUUCGGCGGAUGCCUCCAAA

Variants of: B1
Assay: self-cleavage kobs at 2500 uM GlcN6P; higher = faster cleavage; RNA array
Conditions: with glucosamine-6-phosphate
Method in brief: (§1)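 Sequenced MiSeq chips were the platform: E. coli RNA polymerase transcribed barcoded ribozyme variants on them in situ, and a hybridised Cy3 probe tracked these at 37 °C. After glucosamine-6-phosphate (40 μM to 10 mM) in HEPES/KCl/Mg(OAc)2 buffer was flowed in, tiles were imaged over ~14 h. Signals normalised to baseline and to non-cleaving reference variants were reduced to per-tile medians and fit to one- or two-exponential decays to obtain kobs. kcat and KM were derived through weighted Michaelis–Menten fits across concentrations.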

Variant	self-cleavage kobs at 2500 uM GlcN6P [s⁻¹]
AUAAAAGCGCCAGAACUACAGAAAUGUAAAUGACGAGGAGGAGGUUUAUCGAGUUUUCGGCGGAGGCCUCCAAA [G29A U30A A53G U65G]	6.03e-05 ± 1.7e-05
AUAAAAGCGCGAGAACUACAGAAAUGUAGUUGACGAAGAGGAGGUUUAUCGAAUUUUCGUCGCAUGCCCUCAAA [C11G G37A G60U G63C U69C C70U]	< 1e-05
AUAAAAGCGGCAGAAUUACAGAAAUGUAGUUGGCGAGGACGAGGUUGAUCGAAUUGUCGGCGGAUGCCUCCAAA [C10G C16U A33G G40C U47G U56G]	< 1e-05
AUAAAAGCGCCAGAACUACAGAAAUGUAGUUGACGAGGAGGAGGUUUAUCGAUUUAUCGGCGGAUGCUUCCAAA [A53U U56A C68U]	0.000647 ± 0.00019
AUAAAAGCGCCAGUACUACAGAAAUGUAGUUUACGAGGAUGAGGUUUAUCGAAUUUUCGGCGGAUGCCUCCAAA [A14U G32U G40U]	3.98e-05 ± 1.3e-05
AUAAAAGCGCCAGCACUACAGAAAUGUAGUUGACGUGGAGGAGGUUUAUCGAAUUUUCUGCGGAUGCCUCCAAA [A14C A36U G59U]	< 1e-05
AUAAAAGCGCCGGAACUACAGAAAUGUAGUUGACGAGGAGGAGGUUUAUCGAGUUUUCGGCGCAUGCCUCCAAA [A12G A53G G63C]	< 1e-05
AUAAAACCGCCUGAACUACAGAAAUGUAGUUGACGAGGGGGAGGUUUAUCGAUUUUUCGGCGGAUGCCUCCAAA [G7C A12U A39G A53U]	< 1e-05
AUAAAAUCGCAAGCCCUACAGAAAUGUAGUUGCCGAGGAGGAGGUGUGUCGAAUUUUCGGUGGAUGACUCCAAA [G7U C11A A14C A15C A33C U46G A48G C61U C67A]	< 1e-05
AUAAAAGCGCCAGAACUACAGAAAUGUAGUUGAAGUGGAGGAGGUUUAUCGGAUUUUCGGCGGAUGCCUCCAAA [C34A A36U A52G]	< 1e-05
AUAAAAGCGCCAGAACUACAGAAAUGUAGUUGACGAGGAGUAGGUUUAUCGAUUUGUCGGCGGAUGCCUCCAAA [G41U A53U U56G]	0.00031 ± 9.3e-05
AUAAAAGCGCCAGAACUACAGAAAUGUAGUUGACGAGGAGCACGUUAAUCGAAUUUUCGGCGGGUGCCUCCAAA [G41C G43C U47A A64G]	< 1e-05
AUAAAAGCGCCAGAAGUACAGAAAUGUAGUUUACGAGGAGGAGAUUUAUCGAAUUUUCGACGGAUGCCUCCAAA [C16G G32U G44A G60A]	< 1e-05
AUAAAAGCGCCAGAACUACAGAAAUGUACUUGACGAGUAGGAGGUUUAUCGAAUUCUCGGCGGAUGCCUCCAAA [G29C G38U U56C]	< 1e-05
AUAAAAGCGCCAGAAGUACAGAAAUGUAUUUGAGGAGGAGGAGGUUUAUCGAAUUUUCGGCGGAUGCCUCCAAA [C16G G29U C34G]	< 1e-05
AUAAAAGCGCCCUAACUACAGAAAUGUAGCUGACGAGGAGGAGGUUUAUCGAAUUUUCGACGGAUACCUCCAAA [A12C G13U U30C G60A G66A]	< 1e-05
AUAAAAGCGCCAGAACUACAGAAAUGUAGUUCACGAGGAGGAGGUUUAUCGAAUUUUCGGCCGAUGUCUCCAAA [G32C G62C C67U]	< 1e-05
AUAAAAGCGCCACAACUACAGAAAUGUAGUUGACGAGGAGGAGGUUAAUCGAAUUUUCGGCGGAUGCCGCCAAA [G13C U47A U69G]	0.000497 ± 0.00015

Variant	self-cleavage kobs at 2500 uM GlcN6P [s⁻¹]
AUAAAAGCGCCAGAACUACAGAAAUGUAGUUGGUGAGGAGGAGGUUUAACGAAUUUUCGGCGGAUGCCUCCAAA [A33G C34U U49A]	< 1e-05
AUAAAAGCGCCAGAACUACAGAAAUGUAGUUGACGAGGGGGAGGUUUAUCGAAUUUUCGGCGGAUACCGCCAAA [A39G G66A U69G]	3.43e-05 ± 1.3e-05
AUAAAAGUGCCAAAGCUACAGAAAUGUAGUUGACGAGGAGGAGGUUUAUCGAAUUUUCGGCGGAUGCCUCCAAA [C8U G13A A15G]	< 1e-05
AUAAAAGCGCCAGAUCUACAGAAAUGUAGUUGACGAGGAGGAGGUUUAUCGAAUUUUCGGCGGGUGCCUCGAAA [A15U A64G C71G]	5.53e-05 ± 1.5e-05
AUAAAAGCGCCAGAAUUACAGAAAUGUAGUUGAGGAGGAGGAGGUUUAUCGACUUUUCGGCGGAUGCCUCCAAA [C16U C34G A53C]	< 1e-05
AUAAAAGCGCCAGAAUUACAGAAAUGUAGGUAACGAGGAGGAGGUUUAUCGAAUUUUCGGCGGAUGCUUCCAAA [C16U U30G G32A C68U]	7.75e-05 ± 3.2e-05
AUAAAAGCGCCAGAACUACAGAAAUGUAGUUGCCGAAGAGGAGGUUAAUCGAAUUUUCGGCGGAUGCCUCCAAA [A33C G37A U47A]	< 1e-05
AUAAAAGCGCCAGAACUACAGAAAUGUAGUUGACGAGGAGGAGUUGUAUCGAAUUUUCGGCGGAUGACUCCAAA [G44U U46G C67A]	0.00376 ± 0.00093
AUAAAUGCGGCAGAACUACAGAAAUGUAGUUGACGAGGUGGAGGUUUAUCGAAUUUUCGGCGGAUGCCUCUAAA [A6U C10G A39U C71U]	< 1e-05
AUAAAAGCGCCAGAACUACAGAAAUGUAGUUGUAGAGAAGGAGGUUUAUAGAAUUUUCGGCGGAUGCCUGCAAA [A33U C34A G38A C50A C70G]	0.00153 ± 0.0004
AUAAAAGCGCCAGAACUACAGAAAUGUAGUUGCCGAGGAUGAGGUUUAUCGAAUUUUCGGCAGAUGCCUGCAAA [A33C G40U G62A C70G]	< 1e-05
AUAAAAGCGCCUGAACUACAGAAAUGUAGUUGAUGAGGAGGAGGUUUAUCGAAUUUUCGGCGGAUGCCUCUAAA [A12U C34U C71U]	< 1e-05
AUAAAAGCGCCAGAACUACAGAAAUGUAGUUGACCACGAGGAGGUUUAUCGAAAUUUCGGCGGAUUCCUCCAAA [G35C G37C U54A G66U]	< 1e-05
AUAAACGCGCCUGAACUACAGAAAUGUAGUUGACGAGGAGGAGGUUUAACGAGAUUUCGGCGGAUGCCUCCAAA [A6C A12U U49A A53G U54A]	< 1e-05
AUAAAAGCGCCAGAACUACAGAAAUGUAGAUGACGAGGAAGAGGUUUAUCGAAUUUUCGGCGGAUGCCUCAAAA [U30A G40A C71A]	0.00142 ± 0.0005
AUAAAAGCGCUAGAACUACAGAAAUGUAGUUGACGAGGAGGAGCUUUAUCGUAUUUUCGCCGGAUGCCUCCAAA [C11U G44C A52U G60C]	< 1e-05
AUAAAAGCGCCAGAACUACAGAAAUGUAGUGGACGAGCAGGAGGUCUAUCGAAUUUUCGGCGGAGGCCUCCAAA [U31G G38C U46C U65G]	< 1e-05
AUAAAAGCGCGAGAACUACAGAAAUGUAGCUGACGAGGACGAGGUUUAUCGAAUUUUCGGCGGAUGCCUCCAAA [C11G U30C G40C]	< 1e-05

Variants of: B1
Assay: self-cleavage kobs at 10000 uM GlcN6P; higher = faster cleavage; RNA array
Conditions: with glucosamine-6-phosphate
Method in brief: as §1

Variant	self-cleavage kobs at 10000 uM GlcN6P [s⁻¹]
AUAAAAGCGCCAGAACUACAGAAAUGUAGUUCACGAGGAGGAGGUUUAUCGAAUUUUCGGCCGAUGUCUCCAAA [G32C G62C C67U]	< 1e-05
AUAAAAGCGCCAGAAUUACAGAAAUGUAGGUAACGAGGAGGAGGUUUAUCGAAUUUUCGGCGGAUGCUUCCAAA [C16U U30G G32A C68U]	0.000157 ± 5.1e-05
